From patent publication US20230226223A1 (SOLA BIOSCIENCES, published 2023)
Read-outs that look alike come from different tables or passages of the source.

B1: Construct 4, JB1-2XQBP1 (designed binder)
chain: MGKDYYQTLGLARGASDEEIKRAYRRQALRYHPDKNKEPGAEEKFKEIAEAYDVLSDPRKREIFDRYGEEGLKGSDIGGGGSGGGGSGGGGSGGGGSAAASNWKWWPGIFDGLESNWKWWPGIFD
B2: Construct 61, JC7-QBP1-QBP1 (designed binder)
chain: MDYYKILGVDKNASEDEIKKAYRKRALMHHPDRHSGASAEVQKEEEKKFKEVGEAFTILSDPKKKTRYDSGQDIGGGGSGGGGSGGGGSAAASNWKWWPGIFDLEGDYKDDDDKGSRAAASNWKWWPGIFDLE
B3: Construct 14, JB1(1-108)-2XQBP1 (designed binder)
chain: MGKDYYQTLGLARGASDEEIKRAYRRQALRYHPDKNKEPGAEEKFKEIAEAYDVLSDPRKREIFDRYGEEGLKGSGPSGGSGGGANGTSFSYTFHGDPHAMFAEFFGGDIGGGGSGGGGSGGGGSGGGGSAAASNWKWWPGIFDGLESNWKWWPGIFD
B4: Construct 12, JB1(1-57)-2XQBP1 (designed binder)
chain: MGKDYYQTLGLARGASDEEIKRAYRRQALRYHPDKNKEPGAEEKFKEIAEAYDVLSDDIGGGGSGGGGSGGGGSGGGGSAAASNWKWWPGIFDGLESNWKWWPGIFD
B5: Construct 62, DnaJ-QBP1-QBP1 (designed binder)
chain: MAKQDYYEILGVSKTAEEREIRKAYKRLAMKYHPDRNQGDKEAEAKFKEIKEAYEVLTDSQKRAAYDQYGHADIGGGGSGGGGSGGGGSAAASNWKWWPGIFDLEGDYKDDDDKGSRAAASNWKWWPGIFDLE
B6: Construct 16, JB1-2XQBP1 (rigid linker) (designed binder)
chain: MGKDYYQTLGLARGASDEEIKRAYRRQALRYHPDKNKEPGAEEKFKEIAEAYDVLSDPRKREIFDRYGEEGLKGSDIEAAAKAAASNWKWWPGIFDGLESNWKWWPGIFD
B7: Construct 34, JB1-QBP1-QBP1 (1) (designed binder)
chain: MGKDYYQTLGLARGASDEEIKRAYRRQALRYHPDKNKEPGAEEKFKEIAEAYDVLSDPRKREIFDRYGEEGLKGSGGGGSGGGGSGGGGSGGGGSAAASNWKWWPGIFDLEGDYKDDDDKGSRAAASNWKWWPGIFDLE
B8: Construct 59, JB13-QBP1-QBP1 (designed binder)
chain: MGQDYYSVLGITRNSEDAQIKQAYRRLALKHHPLKSNEPSSAEIFRQIAEAYDVLSDPMKRGIYDKFGEEGLKGGDIGGGGSGGGGSGGGGSAAASNWKWWPGIFDLEGDYKDDDDKGSRAAASNWKWWPGIFDLE
B9: Construct 15, JB1-2XQBP1 (no flexible linker) (designed binder)
chain: MGKDYYQTLGLARGASDEEIKRAYRRQALRYHPDKNKEPGAEEKFKEIAEAYDVLSDPRKREIFDRYGEEGLKGSDIAAASNWKWWPGIFDGLESNWKWWPGIFD

What was measured:
Test in all cases: cell-based or functional assay
[1] = molecular target: GFP-HTTQ74 reporter construct
[2] = molecular target: GFP-HTTQ74 reporter construct; remark: listed apart in the source
[3] = molecular target: GFP-HTTQ74 reporter construct; remark: listed apart in the source
[4] = molecular target: GFP-HTTQ74 reporter construct; remark: listed apart in the source
[5] = molecular target: GFP-HTTQ74 reporter construct; remark: listed apart in the source

Binder | % Aggregation (relative to Q74 alone), filter trap assay [3] | % Aggregation (relative to Q74 alone), filter trap assay [4] | Reduction (%) of protein aggregation [5] | further results
B1 | 24.9% | 29.7% |  | % Aggregation (relative to Q74 alone), filter trap assay [1]: 9.86%; Reduction of Aggregation (%), filter trap assay [2]: 24.9%
B2 |  |  | 89% | 
B3 |  | 32% |  | 
B4 |  | 40.3% |  | 
B5 |  |  | 15.7% | 
B6 | 17.6% |  |  | 
B7 |  |  | 96.1% | Reduction of Aggregation (%), filter trap assay [2]: 96.3%
B8 |  |  | -27% | 
B9 | 24.5% |  |  | 
